fluorescein = fluorescein label, attached with NHS-fluorescein
Target: T1, fibrinogen (species not stated); biotinylated fibrinogen on streptavidin plates in the phage ELISA, free … (Homo sapiens (Human), UniProt P02671 20-644); P02675 31-491; P02679 27-437, Biotinylated at unstated positions in the phage ELISA and unlabelled in the anisotropy assay. The native molecule is a disulfide-linked dimer of the three chains, (A-alpha B-beta gamma)2, and is …)
T1 construct: also called Fgn; fibrinogen target
T1 sequence (alpha): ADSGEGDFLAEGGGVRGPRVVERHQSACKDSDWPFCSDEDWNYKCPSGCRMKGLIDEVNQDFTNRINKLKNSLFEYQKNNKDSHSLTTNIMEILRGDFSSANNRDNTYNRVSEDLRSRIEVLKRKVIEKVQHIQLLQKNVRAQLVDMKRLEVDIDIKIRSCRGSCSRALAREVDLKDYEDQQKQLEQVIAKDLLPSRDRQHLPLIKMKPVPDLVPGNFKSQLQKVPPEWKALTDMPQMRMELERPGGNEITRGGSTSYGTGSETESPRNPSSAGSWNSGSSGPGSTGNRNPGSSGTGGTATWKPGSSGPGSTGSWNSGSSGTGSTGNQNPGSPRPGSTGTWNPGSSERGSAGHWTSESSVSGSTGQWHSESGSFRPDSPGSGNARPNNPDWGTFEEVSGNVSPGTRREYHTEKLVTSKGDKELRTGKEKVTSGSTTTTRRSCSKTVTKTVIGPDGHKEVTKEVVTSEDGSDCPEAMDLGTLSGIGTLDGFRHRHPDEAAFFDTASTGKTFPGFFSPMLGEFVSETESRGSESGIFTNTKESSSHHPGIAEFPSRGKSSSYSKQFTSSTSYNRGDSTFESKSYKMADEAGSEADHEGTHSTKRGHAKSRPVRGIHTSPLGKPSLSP
T1 sequence (beta): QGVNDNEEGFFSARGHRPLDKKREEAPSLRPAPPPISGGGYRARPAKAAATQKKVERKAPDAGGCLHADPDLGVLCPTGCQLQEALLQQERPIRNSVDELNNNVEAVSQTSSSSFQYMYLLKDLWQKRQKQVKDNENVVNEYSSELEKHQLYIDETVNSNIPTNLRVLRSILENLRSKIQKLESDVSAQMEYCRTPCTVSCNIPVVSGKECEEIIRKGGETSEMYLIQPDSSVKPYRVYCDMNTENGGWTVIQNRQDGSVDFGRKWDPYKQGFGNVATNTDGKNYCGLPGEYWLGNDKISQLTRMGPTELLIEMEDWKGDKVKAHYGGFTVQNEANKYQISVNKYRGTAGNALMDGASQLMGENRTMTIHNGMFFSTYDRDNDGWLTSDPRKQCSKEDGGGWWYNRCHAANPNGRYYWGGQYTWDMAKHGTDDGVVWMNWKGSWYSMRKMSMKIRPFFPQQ
T1 sequence (gamma): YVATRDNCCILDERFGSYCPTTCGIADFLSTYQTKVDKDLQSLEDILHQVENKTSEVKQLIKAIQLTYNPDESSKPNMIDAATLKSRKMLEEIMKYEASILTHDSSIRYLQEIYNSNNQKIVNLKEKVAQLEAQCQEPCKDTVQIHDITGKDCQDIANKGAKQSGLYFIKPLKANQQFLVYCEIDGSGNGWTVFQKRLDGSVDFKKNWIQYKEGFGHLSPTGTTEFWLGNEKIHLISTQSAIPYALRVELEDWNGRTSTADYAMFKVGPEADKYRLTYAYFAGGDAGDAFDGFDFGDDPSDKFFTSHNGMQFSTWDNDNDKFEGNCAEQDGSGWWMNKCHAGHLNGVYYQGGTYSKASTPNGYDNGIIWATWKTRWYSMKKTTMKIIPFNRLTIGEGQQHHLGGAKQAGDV
Assay: fluorescence anisotropy, 20 nM fluorescein-labeled peptide, fibrinogen varied, 30° C., 1:1 fit
Experimental: An apparent dissociation constant was determined for a selected polypeptide. For this determination, the polypeptide was labeled on the C-terminal end with NHS-fluorescein. Fluorescence anisotropy measurements were performed in 384-well microplates in a volume of 10 μl in binding buffer using a Tecan Polarion fluorescence polarization plate reader. The concentration of fluorescein labeled peptide was held constant (20 nM), and the concentration of fibrinogen was varied. The polypeptide was tested in the same binding buffer as used in the selection. The binding mixture was equilibrated for 10 minutes in the microplate at 30° C. prior to performing the measurement. The observed change in anisotropy was fit to the equation below via nonlinear regression to obtain the apparent KD. This equation assumes that the polypeptide and fibrinogen form a reversible complex with 1:1 stoichiometry.

B1: fluorescein-labeled synthetic polypeptide based on the TN10/IX polypeptide of SEQ ID NO: 43 (peptide)
peptide: Ac-LYLCNSYPMHPYCNPSGGGK(fluorescein)-NH2
modifications: cysteine pairing not given here; also: retained phage-derived N- and C-terminal dipeptides, which ones not given here
notes: Commercial FMOC solid phase synthesis; also called selected polypeptide; not shown: retained phage-derived N-terminal dipeptide (Gly-Ser-, Ala-Gly- or Gly-Asp-); retained phage-derived C-terminal dipeptide (-Ala-Pro, -Gly-Thr or -Asp-Pro)
  Kd: 2 µM

From US20030207330A1 (DYAX, published 2003)
